{
  "source": "patent US20190101529",
  "about": "“TAU PROTEIN-BINDING DNA APTAMERS WITH CAPTURE/DETECTION AND THERAPEUTIC UTILITIES IN TAUOPATHY-RELATED NEURODEGENERATIVE DISORDERS” (UNIVERSITY OF FLORIDA RESEARCH FOUNDATION, INC., published 2019)",
  "binders": {"B1": {"name": "IT6 (ssDNA)", "DNA": "CAGCACCGTCAACTGAATGTTGTCGTCAGAGGTTATAACCTGAACTCGGTGATGCGATGGAGATGT"}, "B2": {"name": "IT5 (ssDNA)", "DNA": "CAGCACCGTCAACTGAATGGCGGGGGGTCAGGTCGGGGTAAGGTGAGCGTGATGCGATGGAGATGT"}, "B3": {"name": "IT9 (ssDNA)", "DNA": "B2 DNA with G19T"}, "B4": {"name": "Ref3 (ssDNA)", "DNA": "CTTCTGCCCGCCTCCTTCC"}, "B5": {"name": "IT3 (ssDNA)", "DNA": "CAGCACCGTCAACTGAATGGGGAGAGTGGTGGGGCGGGGGCCGGATCCGTGATGCGATGGAGATGT"}, "B6": {"name": "IT1d (ssDNA)", "DNA": "TTGGTCCTCCCGGGGTTCTGGAAAA"}, "B7": {"name": "IT4 (ssDNA)", "DNA": "CAGCACCGTCAACTGAATGGGTTGGCCGGGCAGCGGGGGGTAGGCTTGGTGATGCGATGGAGATGT"}, "B8": {"name": "IT6a (ssDNA)", "DNA": "CACCGTCAACTGAATGTTGTCGTCAGAGGTTATAACCTGAACTCGGTG"}, "B9": {"name": "IT1 (ssDNA)", "DNA": "CAGCACCGTCAACTGAATTGCTTGGTCCTCCCGGGGTTCTGGAAAAGCGTGATGCGATGGAGATGT"}, "B10": {"name": "Ref2 (ssDNA)", "DNA": "AACGAGAAGCGCGATCACAT"}, "B11": {"name": "IT2 (ssDNA)", "DNA": "CAGCACCGTCAACTGAATAAGGACTGCTTAGGATTGCGATGATTCAGGGTGATGCGATGGAGATGT"}, "B12": {"name": "IT2a (ssDNA)", "DNA": "CTGAATAAGGACTGCTTAGGATTGCGATGATTCAG"}, "B13": {"name": "IT1c (ssDNA)", "DNA": "GCTTGGTCCTCCCGGGGTTCTGGAAAAGC"}, "B14": {"name": "IT2b (ssDNA)", "DNA": "AAGGACTGCTTAGGATTGC"}, "B15": {"name": "Ref1 (ssDNA)", "DNA": "GCGGAGCGTGGCAGG"}},
  "key": {"[1]": {"biological_target": "Tau441 (microtubule-associated protein tau, 2N4R) (UniProt P10636-8 P10636-8:1-441)", "sequence (P10636 other isoform, or with tags, fused parts or gaps)": "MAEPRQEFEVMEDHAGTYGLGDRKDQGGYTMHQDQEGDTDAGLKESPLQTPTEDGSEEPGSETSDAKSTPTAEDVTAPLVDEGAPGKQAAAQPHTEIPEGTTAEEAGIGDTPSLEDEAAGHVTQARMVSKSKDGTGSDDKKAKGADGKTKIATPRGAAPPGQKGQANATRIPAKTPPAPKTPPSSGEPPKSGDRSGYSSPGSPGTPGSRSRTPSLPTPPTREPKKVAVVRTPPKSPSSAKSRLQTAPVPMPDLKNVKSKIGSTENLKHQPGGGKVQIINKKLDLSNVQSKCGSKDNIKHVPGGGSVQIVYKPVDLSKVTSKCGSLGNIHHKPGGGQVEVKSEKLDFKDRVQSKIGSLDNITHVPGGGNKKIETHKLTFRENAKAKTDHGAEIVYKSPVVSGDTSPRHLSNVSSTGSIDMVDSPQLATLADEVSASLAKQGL", "assay": "BLI; PBS + 5 mM Mg2+, 30 C", "settings": "tags: His-tag (SignalChem) for BLI, rPeptide Tau441 for aggregation assay", "description": "(§1) The binding affinities and binding kinetics of the selected aptamers were determined on an Octet RED384 instrument (Pall Fortebio). All measurements were performed on 384-well plates that were agitated at 1000 rpm at 30° C. The his-tag peptides were immobilized at a concentration of 5 μg/mL on Ni-NTA sensors for 10 minutes, followed by rinsing the sensors in PBS for 10 min. Then the sensors were brought into fresh association buffer (PBS with 5 mM Mg2+) to establish a baseline for another 10 min. For kinetic analysis, the peptide-immobilized sensors were transferred to the wells containing aptamer dilutions (1 μM, 1.5 μM, 2 μM, 3 μM, 4 μM) for the association step (10 min), and then moved to the wells with fresh buffer for the dissociation step (10 min). A reference sensor was used without the treatment with aptamer solution but others steps remained the same. […] Association rate constants (kon), dissociation rate constants (koff), and equilibrium dissociation constants (Kd) for each aptamer binding to its target peptide were calculated using the FORTEBIO® data analysis software 10.0."}, "beta casein": {"biological_target": "T1, beta casein (UniProt P02666 P02666:16-224)", "T1 sequence": "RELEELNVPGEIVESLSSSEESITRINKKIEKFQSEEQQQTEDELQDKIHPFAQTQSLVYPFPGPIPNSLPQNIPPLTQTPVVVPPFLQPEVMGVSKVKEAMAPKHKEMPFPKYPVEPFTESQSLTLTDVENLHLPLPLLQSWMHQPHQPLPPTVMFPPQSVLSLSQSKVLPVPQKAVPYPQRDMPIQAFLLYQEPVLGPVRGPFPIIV", "assay": "EMSA; 200 nM aptamer, 0.05 mg/mL protein, 4 C", "settings": "label: 5'-FAM (flow)"}, "BSA": {"biological_target": "BSA (UniProt P02769 P02769:25-607)", "sequence (P02769 25-607, one chain of several)": "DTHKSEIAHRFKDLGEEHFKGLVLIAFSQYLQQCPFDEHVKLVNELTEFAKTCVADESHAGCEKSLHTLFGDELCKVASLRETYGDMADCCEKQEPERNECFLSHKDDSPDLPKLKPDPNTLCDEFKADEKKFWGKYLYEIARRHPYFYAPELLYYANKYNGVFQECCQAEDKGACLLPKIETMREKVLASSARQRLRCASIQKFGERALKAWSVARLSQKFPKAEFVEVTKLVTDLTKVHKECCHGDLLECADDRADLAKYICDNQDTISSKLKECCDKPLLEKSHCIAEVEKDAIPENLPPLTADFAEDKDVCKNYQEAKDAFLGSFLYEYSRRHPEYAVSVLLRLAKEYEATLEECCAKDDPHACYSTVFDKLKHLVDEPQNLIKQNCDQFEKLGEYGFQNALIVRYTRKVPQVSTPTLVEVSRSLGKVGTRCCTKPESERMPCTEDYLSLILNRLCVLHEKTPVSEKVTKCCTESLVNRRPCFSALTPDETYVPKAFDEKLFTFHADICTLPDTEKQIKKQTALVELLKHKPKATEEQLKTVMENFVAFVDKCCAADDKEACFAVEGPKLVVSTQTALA", "assay": "EMSA; 200 nM aptamer, 0.05 mg/mL protein, 4 C", "settings": "label: 5'-FAM (flow)"}, "UCH-L1": {"biological_target": "UCH-L1 (UniProt P09936 P09936:1-223)", "sequence (P09936 whole entry, one chain of several)": "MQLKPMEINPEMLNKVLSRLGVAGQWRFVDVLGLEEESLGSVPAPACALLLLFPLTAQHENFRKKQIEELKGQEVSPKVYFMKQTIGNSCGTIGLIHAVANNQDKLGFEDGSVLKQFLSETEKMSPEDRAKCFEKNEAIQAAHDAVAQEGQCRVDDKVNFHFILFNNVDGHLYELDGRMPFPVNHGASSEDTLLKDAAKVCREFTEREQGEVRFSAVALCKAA", "assay": "EMSA; 200 nM aptamer, 0.05 mg/mL protein, 4 C", "settings": "label: 5'-FAM (flow)"}, "alpha casein": {"biological_target": "T2, alpha casein (UniProt P02662 P02662:16-214)", "T2 sequence": "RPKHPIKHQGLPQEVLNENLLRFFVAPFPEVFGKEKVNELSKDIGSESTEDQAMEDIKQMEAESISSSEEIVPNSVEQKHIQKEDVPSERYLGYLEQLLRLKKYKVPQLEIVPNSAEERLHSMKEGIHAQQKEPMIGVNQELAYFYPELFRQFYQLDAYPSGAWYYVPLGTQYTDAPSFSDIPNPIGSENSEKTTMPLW", "assay": "EMSA; 200 nM aptamer, 0.05 mg/mL protein, 4 C", "settings": "label: 5'-FAM (flow)"}, "Tau T231 peptide [2]": {"biological_target": "T3, Tau T231 peptide (UniProt P10636)", "T3 chain": "KVAVVRTPPKSPS", "assay": "flow; no significant background binding; PBS + 5 mM MgCl2, 4 C", "settings": "protein: synthetic; tags: synthetic (GenScript), N-terminal acetyl, C-terminal Ahx-Ahx-His6; label: fluorophore", "description": "(§2) For each sample, 20 μL of peptide-beads or bare beads (˜1.4×105 beads) was washed against 500 μL of PBS three times. After removing the supernatant, beads were suspended in 80 μL of buffer containing either DNA pool or aptamer candidate to be tested at 250 nM for 30 min, but the DNA concentration used was 100 nM instead of 250 nM when examining the saturation of fluorescent signal with the selection pools. Incubations were carried out at 4° C. unless stated otherwise. Afterwards, beads were washed against 500 μL of PBS with additional 5 mM Mg2+ twice and then were suspended in 80 μL of buffer for flow cytometric analysis.\nThe supernatant collected after the fourth negative incubation then was carried to the 8th round of positive incubation, in which the concentration of the peptide solutions used to modify Ni-NTA beads was doubled to 800 μg/mL. Moving forward, the following selection rounds were conducted with sandwiched negative incubations to eliminate the possibility of enriching any oligonucleotides recognizing the surface of the beads and with positive beads prepared with more concentrated peptide solutions (800 μg/mL) to raise the recovery rate of the desired candidates. The SELEX progress was then evaluated again with amplicons obtained in Round #10 and Round #11. […] Four oligonucleotides were used as reference sequences."}, "Tau T231 peptide [3]": {"biological_target": "T3, Tau T231 peptide", "assay": "flow; binding lost; 4 C", "settings": "protein: synthetic; tags: synthetic peptide (GenScript), N-terminal acetyl, C-terminal (Ahx)2-His6", "description": "as §2, with “BD ACCURI™ C6 flow cytometry (BD Immunocytometry Systems) was used to monitor the enrichment of aptamer candidates during the selection process and to evaluate the binding specificity of the selected aptamer candidates. For” for “For”"}, "Tau T231 peptide [4]": {"biological_target": "T3, Tau T231 peptide", "assay": "BLI; PBS + 5 mM Mg2+, 30 C", "settings": "protein: synthetic; tags: synthetic peptide (GenScript), N-terminal acetyl, C-terminal (Ahx)2-His6", "description": "as §1"}, "Tau T231 peptide [5]": {"biological_target": "T3, Tau T231 peptide", "assay": "flow; binding lost completely; 4 C", "settings": "protein: synthetic; tags: synthetic peptide (GenScript), N-terminal acetyl, C-terminal (Ahx)2-His6", "description": "as §2, with “BD ACCURI™ C6 flow cytometry (BD Immunocytometry Systems) was used to monitor the enrichment of aptamer candidates during the selection process and to evaluate the binding specificity of the selected aptamer candidates. For” for “For”"}, "Tau T231P phosphopeptide": {"biological_target": "T4, Tau T231P phosphopeptide (UniProt P10636)", "T4 chain": "KVAVVR[pT]PPKSPS", "assay": "flow; binding lost completely; 4 C", "settings": "protein: synthetic", "description": "as §2, with “BD ACCURI™ C6 flow cytometry (BD Immunocytometry Systems) was used to monitor the enrichment of aptamer candidates during the selection process and to evaluate the binding specificity of the selected aptamer candidates. For” for “For”"}, "Tau S202 peptide": {"biological_target": "T5, Tau S202 peptide", "T5 chain": "GYSSPGSPGTPGSR", "assay": "flow; binding lost completely; 4 C", "settings": "protein: synthetic; tags: synthetic peptide (GenScript), N-terminal acetyl, C-terminal (Ahx)2-His6", "description": "as §2, with “BD ACCURI™ C6 flow cytometry (BD Immunocytometry Systems) was used to monitor the enrichment of aptamer candidates during the selection process and to evaluate the binding specificity of the selected aptamer candidates. For” for “For”"}},
  "note": "Residue numbers refer to the chain shown, from its start. Where no end group is shown, it is not given here. [ ]: non-standard residue; d: D form. pT = C[C@@H](OP(=O)(O)O)[C@H](N)C(=O)O",
  "data": [
    {"binder": "B1", "values": [
      {"measurement": "Kd", "setting": "[1]; label: 5'-FAM (flow), branched hairpin (predicted)", "value": 26.8, "unit": "nM"}
    ]},
    {"binder": "B2", "values": [
      {"measurement": "Kd", "setting": "[1]; label: 5'-FAM (flow)", "value": 7.6, "unit": "nM"},
      {"measurement": "binding result", "setting": "beta casein", "value": "no binding"},
      {"measurement": "binding result", "setting": "BSA", "value": "no binding"},
      {"measurement": "binding result", "setting": "UCH-L1", "value": "no binding"},
      {"measurement": "binding result", "setting": "alpha casein", "value": "no binding"}
    ]},
    {"binder": "B3", "values": [
      {"measurement": "Kd", "setting": "[1]; label: 5'-FAM (flow)", "value": 22.8, "unit": "nM"},
      {"measurement": "binding result", "setting": "beta casein", "value": "no binding"},
      {"measurement": "binding result", "setting": "BSA", "value": "no binding"},
      {"measurement": "binding result", "setting": "UCH-L1", "value": "no binding"},
      {"measurement": "binding result", "setting": "alpha casein", "value": "no binding"}
    ]},
    {"binder": "B4", "values": [
      {"measurement": "binding result", "setting": "Tau T231 peptide [2]", "value": "no binding"}
    ]},
    {"binder": "B5", "values": [
      {"measurement": "Kd", "setting": "[1]; label: 5'-FAM (flow)", "value": 17, "unit": "nM"},
      {"measurement": "binding result", "setting": "beta casein", "value": "no binding"},
      {"measurement": "binding result", "setting": "BSA", "value": "no binding"},
      {"measurement": "binding result", "setting": "UCH-L1", "value": "no binding"},
      {"measurement": "binding result", "setting": "alpha casein", "value": "no binding"}
    ]},
    {"binder": "B6", "values": [
      {"measurement": "binding result", "setting": "Tau T231 peptide [3]", "value": "no binding"}
    ]},
    {"binder": "B7", "values": [
      {"measurement": "Kd", "setting": "[1]; label: 5'-FAM (flow)", "value": 68, "unit": "nM"},
      {"measurement": "binding result", "setting": "beta casein", "value": "no binding"},
      {"measurement": "binding result", "setting": "BSA", "value": "no binding"},
      {"measurement": "binding result", "setting": "UCH-L1", "value": "no binding"},
      {"measurement": "binding result", "setting": "alpha casein", "value": "no binding"}
    ]},
    {"binder": "B8", "values": [
      {"measurement": "Kd", "setting": "[1]", "value": 28.2, "unit": "nM"}
    ]},
    {"binder": "B9", "values": [
      {"measurement": "Kd", "setting": "[1]; label: 5'-FAM (flow)", "value": 9, "unit": "nM"}
    ]},
    {"binder": "B10", "values": [
      {"measurement": "binding result", "setting": "Tau T231 peptide [2]", "value": "no binding"}
    ]},
    {"binder": "B11", "values": [
      {"measurement": "Kd", "setting": "[1]; label: 5'-FAM (flow)", "value": 5.5, "unit": "nM"}
    ]},
    {"binder": "B12", "values": [
      {"measurement": "Kd", "setting": "[1]; hairpin", "value": 19.5, "unit": "nM"}
    ]},
    {"binder": "B13", "values": [
      {"measurement": "Kd", "setting": "[1]", "value": 13, "unit": "nM"},
      {"measurement": "Kd", "setting": "Tau T231 peptide [4]", "value": 46, "unit": "nM"}
    ]},
    {"binder": "B14", "values": [
      {"measurement": "binding result", "setting": "Tau T231 peptide [5]", "value": "no binding"},
      {"measurement": "binding result", "setting": "Tau T231P phosphopeptide", "value": "no binding"},
      {"measurement": "binding result", "setting": "Tau S202 peptide", "value": "no binding"}
    ]},
    {"binder": "B15", "values": [
      {"measurement": "binding result", "setting": "Tau T231 peptide [2]", "value": "no binding"}
    ]}
  ]
}
